Results reported in publication PMC6131064.
Residue numbers refer to the chain shown, from its start. Names may count otherwise.

B1: BktB (Cupriavidus necator H16; M158A) (protein)
chain: MTREVVVVSGVRTAIGTFGGSLKDVAPAELGALVVREALARAQVSGDDVGHVVFGNVIQTEPRDMYLGRVAAVNGGVTINAPALTVNRLCGSGLQAIVSAAQTILLGDTDVAIGGGAESMSRAPYLAPAARWGARMGDAGLVDMMLGALHDPFHRIHAGVTAENVAKEYDISRAQQDEAALESHRRASAAIKAGYFKDQIVPVVSKGRKGDVTFDTDEHVRHDATIDDMTKLRPVFVKENGTVTAGNASGLNDAAAAVVMMERAEAERRGLKPLARLVSYGHAGVDPKAMGIGPVPATKIALERAGLQVSDLDVIEANEAFAAQACAVTKALGLDPAKVNPNGSGISLGHPIGATGALITVKALHELNRVQGRYALVTMCIGGGQGIAAIFERI
B2: BktB (Cupriavidus necator H16) (protein)
chain: B1 chain with A158M

Experiments:
[1] = substrate: CC(=O)CC(=O)SCCNC(=O)CCNC(=O)[C@H](O)C(C)(C)COP(=O)(O)OP(=O)(O)OC[C@H]1O[C@@H](n2cnc3c(N)ncnc32)[C@H](O)[C@@H]1OP(=O)(O)O; assay: thiolysis, decrease in A303 of Mg-keto-acyl-CoA complex, Michaelis-Menten fit; type: biochemical, Cupriavidus necator; conditions: C4 thiolysis, 200 μM CoASH, 10 mM MgCl2, 100 mM Tris pH 7.0
[2] = substrate: CCCC(=O)CC(=O)SCCNC(=O)CCNC(=O)[C@H](O)C(C)(C)COP(=O)(O)OP(=O)(O)OC[C@H]1O[C@@H](n2cnc3c(N)ncnc32)[C@H](O)[C@@H]1OP(=O)(O)O; assay: as above; type: biochemical, Cupriavidus necator; conditions: C6 thiolysis, 200 μM CoASH, 10 mM MgCl2, 100 mM Tris pH 7.0

Protein | Km [1] [µM] | kcat [1] [s⁻¹] | kcat/Km [1] [M⁻¹ s⁻¹] | Km [2] [µM] | kcat [2] [s⁻¹] | kcat/Km [2] [M⁻¹ s⁻¹]
B1 | 14.1 | 4.63 | 328000 | 17 | 16.7 | 982000
B2 | 17.5 | 148 | 8.45e+06 | 15.2 | 4.06 | 267000
